Experimental findings from doi:10.1101/2023.01.24.525315 (bioRxiv, 2023) are described below.

For experiment [1], the target named is Fly Caf1 wild-type (fly (Drosophila melanogaster), UniProt Q24572 1-430). In words: pull-down.
Experiment [2] concerns the target Caf1 H3 binding pocket mutant (E235Q/D252K/E279Q) (fly (Drosophila melanogaster), UniProt Q24572 1-430, E235Q | D252K | E279Q). In words: pull-down.

Caf1 H3 binding pocket mutant (E235Q/D252K/E279Q), sequence (Q24572 whole entry E235Q/D252K/E279Q): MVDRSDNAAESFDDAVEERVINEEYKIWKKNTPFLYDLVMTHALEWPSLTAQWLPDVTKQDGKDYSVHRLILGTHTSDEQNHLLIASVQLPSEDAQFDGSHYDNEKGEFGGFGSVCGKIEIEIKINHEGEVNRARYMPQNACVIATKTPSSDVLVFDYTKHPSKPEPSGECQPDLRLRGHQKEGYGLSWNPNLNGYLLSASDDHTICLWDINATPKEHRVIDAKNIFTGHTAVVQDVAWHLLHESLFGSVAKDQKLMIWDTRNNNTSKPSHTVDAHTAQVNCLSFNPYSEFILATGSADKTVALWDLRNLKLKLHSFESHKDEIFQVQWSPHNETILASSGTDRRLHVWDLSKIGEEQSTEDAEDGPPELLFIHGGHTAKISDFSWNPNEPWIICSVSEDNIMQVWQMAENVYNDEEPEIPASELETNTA
Fly Caf1 wild-type, sequence (Q24572 whole entry): as the sequence (Q24572 whole entry E235Q/D252K/E279Q) above, with Q235E, K252D, Q279E counted along it

B1: GST-CBM (Caf1-binding-motif, Ash1 1,582-1,616) (domain or fragment, fly (Drosophila melanogaster), UniProt Q9VW15 1582-1616, looked up)
chain: AKLQPLSEKEKKLVRQFNTFLVRNFEKIRRCKAKR
Turning to B1, the binding result in experiment [1] and in experiment [2] was “binds” throughout.
